# From IntAct's records for PubMed 19114660
# B1: Occludin (Homo sapiens), Q16625-1 (parent)
# chain: MSSRPLESPPPYRPDEFKPNHYAPSNDIYGGEMHVRPMLSQPAYSFYPEDEILHFYKWTSPPGVIRILSMLIIVMCIAIFACVASTLAWDRGYGTSLLGGSVGYPYGGSGFGSYGSGYGYGYGYGYGYGGYTDPRAAKGFMLAMAAFCFIAALVIFVTSVIRSEMSRTRRYYLSVIIVSAILGIMVFIATIVYIMGVNPTAQSSGSLYGSQIYALCNQFYTPAATGLYVDQYLYHYCVVDPQEAIAIVLGFMIIVAFALIIFFAVKTRRKMDRYDKSNILWDKEHIYDEQPPNVEEWVKNVSAGTQDVPSPPSDYVERVDSPMAYSSNGKVNDKRFYPESSYKSTPVPEVVQELPLTSPVDDFRQPRYSSGGNFETPSKRAPAKGRAGRSKRTEQDHYETDYTTGGESCDELEEDWIREYPPITSDQQRQLYKRNFDTGLQEYKSLQSELDEINKELSRLDKELDDYREESEEYMAAADEYNRLKQVKGSADYKSKKNHCKQLKSKLSHIKKMVGDYDRQKT
# Variants of: B1
# Settings: with kpcl_human kpcl_human
row,effect of a mutation on the interaction,Variant
1,decreasing interaction,MSSRPLESPPPYRPDEFKPNHYAPSNDIYGGEMHVRPMLSQPAYSFYPEDEILHFYKWTSPPGVIRILSMLIIVMCIAIFACVASTLAWDRGYGTSLLGGSVGYPYGGSGFGSYGSGYGYGYGYGYGYGGYTDPRAAKGFMLAMAAFCFIAALVIFVTSVIRSEMSRTRRYYLSVIIVSAILGIMVFIATIVYIMGVNPTAQSSGSLYGSQIYALCNQFYTPAATGLYVDQYLYHYCVVDPQEAIAIVLGFMIIVAFALIIFFAVKTRRKMDRYDKSNILWDKEHIYDEQPPNVEEWVKNVSAGTQDVPSPPSDYVERVDSPMAYSSNGKVNDKRFYPESSYKSTPVPEVVQELPLTSPVDDFRQPRYSSGGNFETPSKRAPAKGRAGRSKRTEQDHYETDYTAGGESCDELEEDWIREYPPITSDQQRQLYKRNFDTGLQEYKSLQSELDEINKELSRLDKELDDYREESEEYMAAADEYNRLKQVKGSADYKSKKNHCKQLKSKLSHIKKMVGDYDRQKT [T404A]
2,decreasing interaction,MSSRPLESPPPYRPDEFKPNHYAPSNDIYGGEMHVRPMLSQPAYSFYPEDEILHFYKWTSPPGVIRILSMLIIVMCIAIFACVASTLAWDRGYGTSLLGGSVGYPYGGSGFGSYGSGYGYGYGYGYGYGGYTDPRAAKGFMLAMAAFCFIAALVIFVTSVIRSEMSRTRRYYLSVIIVSAILGIMVFIATIVYIMGVNPTAQSSGSLYGSQIYALCNQFYTPAATGLYVDQYLYHYCVVDPQEAIAIVLGFMIIVAFALIIFFAVKTRRKMDRYDKSNILWDKEHIYDEQPPNVEEWVKNVSAGTQDVPSPPSDYVERVDSPMAYSSNGKVNDKRFYPESSYKSTPVPEVVQELPLTSPVDDFRQPRYSSGGNFETPSKRAPAKGRAGRSKRTEQDHYETDYATGGESCDELEEDWIREYPPITSDQQRQLYKRNFDTGLQEYKSLQSELDEINKELSRLDKELDDYREESEEYMAAADEYNRLKQVKGSADYKSKKNHCKQLKSKLSHIKKMVGDYDRQKT [T403A]
3,decreasing interaction,MSSRPLESPPPYRPDEFKPNHYAPSNDIYGGEMHVRPMLSQPAYSFYPEDEILHFYKWTSPPGVIRILSMLIIVMCIAIFACVASTLAWDRGYGTSLLGGSVGYPYGGSGFGSYGSGYGYGYGYGYGYGGYTDPRAAKGFMLAMAAFCFIAALVIFVTSVIRSEMSRTRRYYLSVIIVSAILGIMVFIATIVYIMGVNPTAQSSGSLYGSQIYALCNQFYTPAATGLYVDQYLYHYCVVDPQEAIAIVLGFMIIVAFALIIFFAVKTRRKMDRYDKSNILWDKEHIYDEQPPNVEEWVKNVSAGTQDVPSPPSDYVERVDSPMAYSSNGKVNDKRFYPESSYKSTPVPEVVQELPLTSPVDDFRQPRYSSGGNFETPSKRAPAKGRAGRSKRTEQDHYETDYTTGGESCDELEEDWIREYPPITSDQQRQLYKRNFDAGLQEYKSLQSELDEINKELSRLDKELDDYREESEEYMAAADEYNRLKQVKGSADYKSKKNHCKQLKSKLSHIKKMVGDYDRQKT [T438A]
